Experiments:
Assay in all cases: cell-based or functional assay
[1] = molecular target: ReFacto (rec. FVIII from Pfizer) (UniProt P00451)
[2] = molecular target: Helixate (rec. FVIII from CSL Behring) (UniProt P00451)
[3] = molecular target: CSL627 (recombinant B-Domain-deleted single chain FVIII, rVIII-SingleChain) (Homo sapiens (Human)) (UniProt P00451)
[4] = molecular target: Advate (rec. FVIII from Shire) (UniProt P00451)

## CSL626 (truncated VWF (764-1242)-albumin fusion, dimer)
[1]
  IC50, inhibition of factor VIII uptake in MDDCs: 1570 nM
[2]
  IC50, inhibition of factor VIII uptake in MDDCs: 1690 nM
[3]
  IC50, inhibition of factor VIII uptake in MDDCs: 1720 nM
[4]
  IC50, inhibition of factor VIII uptake in MDDCs: 2230 nM

## CSL650 (rec. VWF-albumin fusion from CSL Behring)
[1]
  IC50, inhibition of factor VIII uptake in MDDCs: 778 nM
[2]
  IC50, inhibition of factor VIII uptake in MDDCs: 552 nM
[3]
  IC50, inhibition of factor VIII uptake in MDDCs: 750 nM
[4]
  IC50, inhibition of factor VIII uptake in MDDCs: 769 nM

## plasma-derived von Willebrand Factor (pdVWF; BIOSTATE, human plasma derived VWF from CSL Behring) (from UniProt P04275 23-2813)
[1]
  IC50, inhibition of factor VIII uptake in MDDCs: 963 nM
[2]
  IC50, inhibition of factor VIII uptake in MDDCs: 823 nM
[3]
  IC50, inhibition of factor VIII uptake in MDDCs: 744 nM
  reduction of CSL627 antigen presentation, HLA-DQB1 restricted peptide clusters: 10 fold
  reduction of CSL627 antigen presentation, peptide clusters (printed HLA-DQB1 a second time): 3.5 fold
  reduction of CSL627 antigen presentation, unique HLA-DPB1 bound peptides: 14.2 fold
  reduction of CSL627 antigen presentation, unique HLA-DQB1 bound peptides: 21.7 fold

— patent US20200197495A1
